{"source": "patent US20240261333A1", "about": "“NOVEL TARGETS FOR ENHANCING ANTI-TUMOR IMMUNITY” (THE BROAD INSTITUTE, INC., priority 2021, published 2024)", "key": {"ATP1A1 (human)": {"molecular_target": "ATP1A1 (human) (UniProt P05023)", "experiment": "co-IP/MS, IgG control IP of N-FLAG B3GNT2 cell lysate"}, "CALU (human)": {"molecular_target": "CALU (human) (UniProt O43852)", "sequence (O43852 20-315 limits assumed)": "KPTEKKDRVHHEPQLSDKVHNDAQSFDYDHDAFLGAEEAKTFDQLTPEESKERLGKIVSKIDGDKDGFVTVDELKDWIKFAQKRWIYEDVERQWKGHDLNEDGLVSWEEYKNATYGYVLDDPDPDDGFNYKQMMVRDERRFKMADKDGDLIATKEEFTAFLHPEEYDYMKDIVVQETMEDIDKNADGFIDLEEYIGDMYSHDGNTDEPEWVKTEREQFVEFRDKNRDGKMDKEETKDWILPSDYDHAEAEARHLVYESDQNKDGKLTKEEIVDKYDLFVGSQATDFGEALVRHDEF", "experiment": "co-IP/MS, IgG control IP of N-FLAG B3GNT2 cell lysate"}, "CANX (human)": {"molecular_target": "CANX (human) (UniProt P27824)", "experiment": "co-IP/MS, IgG control IP of N-FLAG B3GNT2 cell lysate"}, "CAPZA1 (human)": {"molecular_target": "CAPZA1 (human) (UniProt P52907)", "experiment": "co-IP/MS, IgG control IP of N-FLAG B3GNT2 cell lysate"}, "CAPZB (human)": {"molecular_target": "CAPZB (human) (UniProt P47756)", "experiment": "co-IP/MS, IgG control IP of N-FLAG B3GNT2 cell lysate"}, "CASP14 (human)": {"molecular_target": "CASP14 (human) (UniProt P31944)", "sequence (P31944 whole entry)": "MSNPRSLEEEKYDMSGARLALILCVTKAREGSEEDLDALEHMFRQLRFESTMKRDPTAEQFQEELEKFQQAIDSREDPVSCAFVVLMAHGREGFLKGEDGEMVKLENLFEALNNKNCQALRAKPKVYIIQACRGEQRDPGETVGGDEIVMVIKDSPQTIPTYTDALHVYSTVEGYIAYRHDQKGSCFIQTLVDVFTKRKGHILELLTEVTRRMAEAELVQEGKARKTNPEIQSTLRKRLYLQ", "experiment": "co-IP/MS, IgG control IP of N-FLAG B3GNT2 cell lysate"}, "CKAP4 (human)": {"molecular_target": "CKAP4 (human) (UniProt Q07065)", "experiment": "co-IP/MS, IgG control IP of N-FLAG B3GNT2 cell lysate"}, "DNAJA1 (human)": {"molecular_target": "DNAJA1 (human) (UniProt P31689)", "experiment": "co-IP/MS, IgG control IP of N-FLAG B3GNT2 cell lysate"}, "ERLIN1 (human)": {"molecular_target": "ERLIN1 (human) (UniProt O75477)", "sequence (O75477 whole entry)": "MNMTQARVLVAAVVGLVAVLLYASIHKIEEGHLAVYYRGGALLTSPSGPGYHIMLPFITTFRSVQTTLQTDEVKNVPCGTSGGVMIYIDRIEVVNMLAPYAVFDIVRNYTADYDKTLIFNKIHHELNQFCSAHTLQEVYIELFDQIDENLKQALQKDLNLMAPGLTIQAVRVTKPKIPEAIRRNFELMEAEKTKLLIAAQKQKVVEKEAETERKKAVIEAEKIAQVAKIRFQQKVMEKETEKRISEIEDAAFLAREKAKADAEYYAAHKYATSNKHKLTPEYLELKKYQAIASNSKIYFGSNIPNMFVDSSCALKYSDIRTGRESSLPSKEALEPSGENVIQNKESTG", "experiment": "co-IP/MS, IgG control IP of N-FLAG B3GNT2 cell lysate"}, "ERLIN2 (human)": {"molecular_target": "ERLIN2 (human) (UniProt O94905)", "experiment": "co-IP/MS, IgG control IP of N-FLAG B3GNT2 cell lysate"}, "FAM3C (human)": {"molecular_target": "FAM3C (human) (UniProt Q92520)", "experiment": "co-IP/MS, IgG control IP of N-FLAG B3GNT2 cell lysate"}, "FKBP10 (human)": {"molecular_target": "FKBP10 (human) (UniProt Q96AY3)", "experiment": "co-IP/MS, IgG control IP of N-FLAG B3GNT2 cell lysate"}, "GCN1 (human)": {"molecular_target": "GCN1 (human) (UniProt Q92616)", "experiment": "co-IP/MS, IgG control IP of N-FLAG B3GNT2 cell lysate"}, "HSD17B12 (human)": {"molecular_target": "HSD17B12 (human) (UniProt Q53GQ0)", "sequence (Q53GQ0 whole entry)": "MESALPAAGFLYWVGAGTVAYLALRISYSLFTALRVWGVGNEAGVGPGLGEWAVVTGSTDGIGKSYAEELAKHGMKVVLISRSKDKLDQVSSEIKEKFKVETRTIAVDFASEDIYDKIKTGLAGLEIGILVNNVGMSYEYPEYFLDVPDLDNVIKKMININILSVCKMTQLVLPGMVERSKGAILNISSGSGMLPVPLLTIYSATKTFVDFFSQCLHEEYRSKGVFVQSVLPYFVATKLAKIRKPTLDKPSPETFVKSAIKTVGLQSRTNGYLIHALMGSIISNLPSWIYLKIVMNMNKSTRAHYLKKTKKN", "experiment": "co-IP/MS, IgG control IP of N-FLAG B3GNT2 cell lysate"}, "IPO4 (human)": {"molecular_target": "IPO4 (human) (UniProt Q8TEX9)", "sequence (Q8TEX9 whole entry)": "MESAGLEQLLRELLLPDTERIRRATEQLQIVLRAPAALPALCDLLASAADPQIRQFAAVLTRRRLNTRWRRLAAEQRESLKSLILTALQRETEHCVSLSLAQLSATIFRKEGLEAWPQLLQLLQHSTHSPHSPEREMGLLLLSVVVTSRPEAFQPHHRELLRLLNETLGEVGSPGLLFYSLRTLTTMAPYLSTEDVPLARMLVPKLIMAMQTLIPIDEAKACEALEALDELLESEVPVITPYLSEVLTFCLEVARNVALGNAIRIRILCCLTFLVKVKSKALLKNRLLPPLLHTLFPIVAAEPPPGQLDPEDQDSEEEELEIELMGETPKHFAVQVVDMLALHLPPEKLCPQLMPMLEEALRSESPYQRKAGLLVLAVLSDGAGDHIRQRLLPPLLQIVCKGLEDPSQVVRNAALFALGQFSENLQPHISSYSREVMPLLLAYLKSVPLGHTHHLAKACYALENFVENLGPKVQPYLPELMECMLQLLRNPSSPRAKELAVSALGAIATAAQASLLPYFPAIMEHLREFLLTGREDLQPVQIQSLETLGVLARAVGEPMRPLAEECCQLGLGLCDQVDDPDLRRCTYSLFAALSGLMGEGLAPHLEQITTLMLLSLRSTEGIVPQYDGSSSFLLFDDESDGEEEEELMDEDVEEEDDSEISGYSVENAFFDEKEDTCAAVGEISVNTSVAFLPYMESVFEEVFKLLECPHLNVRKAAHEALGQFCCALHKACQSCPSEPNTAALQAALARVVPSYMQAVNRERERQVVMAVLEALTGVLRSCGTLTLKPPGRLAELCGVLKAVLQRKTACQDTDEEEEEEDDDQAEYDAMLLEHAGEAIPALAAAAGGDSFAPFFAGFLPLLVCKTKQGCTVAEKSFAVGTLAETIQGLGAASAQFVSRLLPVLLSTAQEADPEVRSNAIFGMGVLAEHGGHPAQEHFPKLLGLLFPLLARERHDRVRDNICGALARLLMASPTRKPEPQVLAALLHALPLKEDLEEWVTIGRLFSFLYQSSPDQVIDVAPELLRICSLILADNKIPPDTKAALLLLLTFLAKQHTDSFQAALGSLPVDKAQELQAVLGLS", "experiment": "co-IP/MS, IgG control IP of N-FLAG B3GNT2 cell lysate"}, "LRP1 (human)": {"molecular_target": "LRP1 (human) (UniProt Q07954)", "experiment": "co-IP/MS, IgG control IP of N-FLAG B3GNT2 cell lysate"}, "PCBP1 (human)": {"molecular_target": "PCBP1 (human) (UniProt Q15365)", "sequence (Q15365 whole entry)": "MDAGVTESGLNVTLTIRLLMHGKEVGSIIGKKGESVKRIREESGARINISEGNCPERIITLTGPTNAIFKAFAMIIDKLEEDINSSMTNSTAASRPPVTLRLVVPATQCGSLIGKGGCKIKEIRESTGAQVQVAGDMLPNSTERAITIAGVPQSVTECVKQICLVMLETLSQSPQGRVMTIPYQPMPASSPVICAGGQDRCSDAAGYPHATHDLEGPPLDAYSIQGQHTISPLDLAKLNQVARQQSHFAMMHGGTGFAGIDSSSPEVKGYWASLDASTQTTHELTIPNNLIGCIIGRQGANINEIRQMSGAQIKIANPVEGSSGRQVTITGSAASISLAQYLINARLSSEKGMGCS", "experiment": "co-IP/MS, IgG control IP of N-FLAG B3GNT2 cell lysate"}, "PIP (human)": {"molecular_target": "PIP (human) (UniProt P12273)", "experiment": "co-IP/MS, IgG control IP of N-FLAG B3GNT2 cell lysate"}, "PRDX1 (human)": {"molecular_target": "PRDX1 (human) (UniProt Q06830)", "sequence (Q06830 2-199 limits assumed)": "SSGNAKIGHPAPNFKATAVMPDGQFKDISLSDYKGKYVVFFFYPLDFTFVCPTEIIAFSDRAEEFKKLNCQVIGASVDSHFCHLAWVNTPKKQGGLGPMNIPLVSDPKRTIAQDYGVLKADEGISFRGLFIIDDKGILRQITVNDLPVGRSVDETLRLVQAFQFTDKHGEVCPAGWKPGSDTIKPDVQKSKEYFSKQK", "experiment": "co-IP/MS, IgG control IP of N-FLAG B3GNT2 cell lysate"}, "PRDX2 (human)": {"molecular_target": "PRDX2 (human) (UniProt P32119)", "sequence (P32119 2-198 limits assumed)": "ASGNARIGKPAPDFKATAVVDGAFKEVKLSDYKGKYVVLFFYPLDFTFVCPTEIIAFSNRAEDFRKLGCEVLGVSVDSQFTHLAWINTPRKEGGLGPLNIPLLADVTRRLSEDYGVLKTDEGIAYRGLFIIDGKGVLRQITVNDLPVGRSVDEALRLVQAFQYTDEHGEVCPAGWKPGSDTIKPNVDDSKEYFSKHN", "experiment": "co-IP/MS, IgG control IP of N-FLAG B3GNT2 cell lysate"}, "RCN2 (human)": {"molecular_target": "RCN2 (human) (UniProt Q14257)", "experiment": "co-IP/MS, IgG control IP of N-FLAG B3GNT2 cell lysate"}, "RPL12 (human)": {"molecular_target": "RPL12 (human) (UniProt P30050)", "experiment": "co-IP/MS, IgG control IP of N-FLAG B3GNT2 cell lysate"}, "RPL23A (human)": {"molecular_target": "RPL23A (human) (UniProt P62750)", "experiment": "co-IP/MS, IgG control IP of N-FLAG B3GNT2 cell lysate"}, "RPL24 (human)": {"molecular_target": "RPL24 (human) (UniProt P83731)", "experiment": "co-IP/MS, IgG control IP of N-FLAG B3GNT2 cell lysate"}, "RPL30 (human)": {"molecular_target": "RPL30 (human) (UniProt P62888)", "experiment": "co-IP/MS, IgG control IP of N-FLAG B3GNT2 cell lysate"}, "RPLPO (human)": {"molecular_target": "RPLPO (human) (UniProt P05388)", "experiment": "co-IP/MS, IgG control IP of N-FLAG B3GNT2 cell lysate"}, "RPS12 (human)": {"molecular_target": "RPS12 (human) (UniProt P25398)", "experiment": "co-IP/MS, IgG control IP of N-FLAG B3GNT2 cell lysate"}, "RPS15 (human)": {"molecular_target": "RPS15 (human) (UniProt P62841)", "experiment": "co-IP/MS, IgG control IP of N-FLAG B3GNT2 cell lysate"}, "RPS3A (human)": {"molecular_target": "RPS3A (human) (UniProt P61247)", "experiment": "co-IP/MS, IgG control IP of N-FLAG B3GNT2 cell lysate"}, "RPS7 (human)": {"molecular_target": "RPS7 (human) (UniProt P62081)", "experiment": "co-IP/MS, IgG control IP of N-FLAG B3GNT2 cell lysate"}, "SLC25A4 (human)": {"molecular_target": "SLC25A4 (human) (UniProt P12235)", "sequence (P12235 2-298 limits assumed)": "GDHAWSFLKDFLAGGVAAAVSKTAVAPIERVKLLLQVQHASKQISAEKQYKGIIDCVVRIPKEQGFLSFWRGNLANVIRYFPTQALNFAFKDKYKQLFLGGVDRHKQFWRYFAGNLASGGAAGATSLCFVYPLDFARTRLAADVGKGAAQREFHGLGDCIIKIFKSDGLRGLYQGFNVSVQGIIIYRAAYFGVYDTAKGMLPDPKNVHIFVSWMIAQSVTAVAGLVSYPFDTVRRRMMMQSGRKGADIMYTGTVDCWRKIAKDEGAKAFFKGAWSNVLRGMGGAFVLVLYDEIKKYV", "experiment": "co-IP/MS, IgG control IP of N-FLAG B3GNT2 cell lysate"}, "SQSTM1 (human)": {"molecular_target": "SQSTM1 (human) (UniProt Q13501)", "experiment": "co-IP/MS, IgG control IP of N-FLAG B3GNT2 cell lysate"}, "TGM3 (human)": {"molecular_target": "TGM3 (human) (UniProt Q08188)", "sequence (Q08188 2-693 limits assumed)": "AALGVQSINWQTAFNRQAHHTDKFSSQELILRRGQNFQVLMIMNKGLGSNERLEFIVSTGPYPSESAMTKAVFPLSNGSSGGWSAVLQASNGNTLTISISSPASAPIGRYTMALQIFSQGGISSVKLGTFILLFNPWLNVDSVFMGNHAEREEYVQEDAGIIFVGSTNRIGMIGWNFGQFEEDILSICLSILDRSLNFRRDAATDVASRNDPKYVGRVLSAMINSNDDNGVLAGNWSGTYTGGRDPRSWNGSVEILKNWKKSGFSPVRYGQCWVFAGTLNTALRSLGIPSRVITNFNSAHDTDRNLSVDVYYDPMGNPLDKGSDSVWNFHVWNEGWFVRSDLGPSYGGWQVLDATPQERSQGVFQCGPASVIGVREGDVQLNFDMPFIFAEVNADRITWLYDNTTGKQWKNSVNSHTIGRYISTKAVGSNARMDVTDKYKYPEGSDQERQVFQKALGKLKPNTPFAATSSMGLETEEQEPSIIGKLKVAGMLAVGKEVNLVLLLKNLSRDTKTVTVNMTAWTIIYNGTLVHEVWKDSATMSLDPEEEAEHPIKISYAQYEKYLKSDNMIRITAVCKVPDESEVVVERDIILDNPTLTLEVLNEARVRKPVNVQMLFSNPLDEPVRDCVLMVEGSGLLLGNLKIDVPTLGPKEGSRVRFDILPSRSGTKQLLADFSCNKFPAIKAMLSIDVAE", "experiment": "co-IP/MS, IgG control IP of N-FLAG B3GNT2 cell lysate"}, "TUBB (human)": {"molecular_target": "TUBB (human) (UniProt P07437)", "sequence (P07437 whole entry)": "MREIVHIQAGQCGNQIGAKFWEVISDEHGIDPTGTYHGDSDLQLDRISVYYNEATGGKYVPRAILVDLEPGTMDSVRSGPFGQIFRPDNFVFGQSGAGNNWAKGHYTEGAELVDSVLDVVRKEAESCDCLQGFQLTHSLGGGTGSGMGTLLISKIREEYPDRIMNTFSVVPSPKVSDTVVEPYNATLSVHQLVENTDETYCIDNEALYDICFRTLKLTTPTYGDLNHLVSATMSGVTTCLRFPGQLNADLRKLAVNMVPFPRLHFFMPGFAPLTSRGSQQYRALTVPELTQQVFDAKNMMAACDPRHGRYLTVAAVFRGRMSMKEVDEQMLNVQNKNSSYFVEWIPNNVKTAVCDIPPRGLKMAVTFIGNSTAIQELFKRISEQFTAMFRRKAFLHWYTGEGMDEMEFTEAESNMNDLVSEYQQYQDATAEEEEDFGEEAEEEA", "experiment": "co-IP/MS, IgG control IP of N-FLAG B3GNT2 cell lysate"}, "UQCRC2 (human)": {"molecular_target": "UQCRC2 (human) (UniProt P22695)", "experiment": "co-IP/MS, IgG control IP of N-FLAG B3GNT2 cell lysate"}, "GBF1 (human)": {"molecular_target": "GBF1 (human) (UniProt Q92538)", "experiment": "co-IP with anti-FLAG, C-FLAG B3GNT2, mass spectrometry"}, "LUC7L3 (human)": {"molecular_target": "LUC7L3 (human) (UniProt O95232)", "experiment": "co-IP with anti-FLAG, C-FLAG B3GNT2, mass spectrometry"}, "TBL2 (human)": {"molecular_target": "TBL2 (human) (UniProt Q9Y4P3)", "sequence (Q9Y4P3 whole entry)": "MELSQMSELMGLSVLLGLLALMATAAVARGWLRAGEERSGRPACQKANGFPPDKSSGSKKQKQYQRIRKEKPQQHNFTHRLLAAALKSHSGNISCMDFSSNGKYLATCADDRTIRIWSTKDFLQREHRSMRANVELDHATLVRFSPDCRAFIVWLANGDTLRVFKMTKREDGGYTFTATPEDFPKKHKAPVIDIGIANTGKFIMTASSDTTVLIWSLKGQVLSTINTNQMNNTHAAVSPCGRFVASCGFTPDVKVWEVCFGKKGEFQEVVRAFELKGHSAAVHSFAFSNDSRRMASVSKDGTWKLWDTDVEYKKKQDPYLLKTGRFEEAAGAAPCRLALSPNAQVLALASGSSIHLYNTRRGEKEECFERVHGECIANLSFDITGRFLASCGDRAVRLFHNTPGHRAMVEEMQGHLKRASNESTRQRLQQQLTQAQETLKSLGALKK", "experiment": "co-IP with anti-FLAG, C-FLAG B3GNT2, mass spectrometry"}}}
{"substance": "IgG control (Millipore Sigma 12-371) (antibody)", "values": [{"measurement": "co-IP mass spectrometry count", "setting": "ATP1A1 (human)", "result": 0}, {"measurement": "co-IP mass spectrometry count", "setting": "CALU (human)", "result": 0}, {"measurement": "co-IP mass spectrometry count", "setting": "CANX (human)", "result": 0}, {"measurement": "co-IP mass spectrometry count", "setting": "CAPZA1 (human)", "result": 0}, {"measurement": "co-IP mass spectrometry count", "setting": "CAPZB (human)", "result": 2}, {"measurement": "co-IP mass spectrometry count", "setting": "CASP14 (human)", "result": 3}, {"measurement": "co-IP mass spectrometry count", "setting": "CKAP4 (human)", "result": 0}, {"measurement": "co-IP mass spectrometry count", "setting": "DNAJA1 (human)", "result": 0}, {"measurement": "co-IP mass spectrometry count", "setting": "ERLIN1 (human)", "result": 0}, {"measurement": "co-IP mass spectrometry count", "setting": "ERLIN2 (human)", "result": 0}, {"measurement": "co-IP mass spectrometry count", "setting": "FAM3C (human)", "result": 0}, {"measurement": "co-IP mass spectrometry count", "setting": "FKBP10 (human)", "result": 0}, {"measurement": "co-IP mass spectrometry count", "setting": "GCN1 (human)", "result": 0}, {"measurement": "co-IP mass spectrometry count", "setting": "HSD17B12 (human)", "result": 0}, {"measurement": "co-IP mass spectrometry count", "setting": "IPO4 (human)", "result": 0}, {"measurement": "co-IP mass spectrometry count", "setting": "LRP1 (human)", "result": 0}, {"measurement": "co-IP mass spectrometry count", "setting": "PCBP1 (human)", "result": 0}, {"measurement": "co-IP mass spectrometry count", "setting": "PIP (human)", "result": 0}, {"measurement": "co-IP mass spectrometry count", "setting": "PRDX1 (human)", "result": 5}, {"measurement": "co-IP mass spectrometry count", "setting": "PRDX2 (human)", "result": 5}, {"measurement": "co-IP mass spectrometry count", "setting": "RCN2 (human)", "result": 0}, {"measurement": "co-IP mass spectrometry count", "setting": "RPL12 (human)", "result": 4}, {"measurement": "co-IP mass spectrometry count", "setting": "RPL23A (human)", "result": 3}, {"measurement": "co-IP mass spectrometry count", "setting": "RPL24 (human)", "result": 4}, {"measurement": "co-IP mass spectrometry count", "setting": "RPL30 (human)", "result": 6}, {"measurement": "co-IP mass spectrometry count", "setting": "RPLPO (human)", "result": 0}, {"measurement": "co-IP mass spectrometry count", "setting": "RPS12 (human)", "result": 0}, {"measurement": "co-IP mass spectrometry count", "setting": "RPS15 (human)", "result": 5}, {"measurement": "co-IP mass spectrometry count", "setting": "RPS3A (human)", "result": 9}, {"measurement": "co-IP mass spectrometry count", "setting": "RPS7 (human)", "result": 2}, {"measurement": "co-IP mass spectrometry count", "setting": "SLC25A4 (human)", "result": 0}, {"measurement": "co-IP mass spectrometry count", "setting": "SQSTM1 (human)", "result": 0}, {"measurement": "co-IP mass spectrometry count", "setting": "TGM3 (human)", "result": 2}, {"measurement": "co-IP mass spectrometry count", "setting": "TUBB (human)", "result": 10}, {"measurement": "co-IP mass spectrometry count", "setting": "UQCRC2 (human)", "result": 0}]}
{"substance": "C-terminal FLAG tagged B3GNT2 (from UniProt Q9NY97 1-397) (enzyme)", "values": [{"measurement": "co-IP mass spectrometry count", "setting": "GBF1 (human)", "result": 5}, {"measurement": "co-IP/MS count, C-term flag", "setting": "LUC7L3 (human)", "result": 3}, {"measurement": "co-IP mass spectrometry count", "setting": "TBL2 (human)", "result": 5}]}
